Measured values published in patent US20120034604A1.

Biological target: polyclonal anti-QRFSR antibody 3RBF-SAB
Assay: competitive ELISA: free Opiorphin against coated Y-(PE)12-QRFSR for antibody 3RBF-SAB

With QRFSR [Opiorphin QRFSR-peptide] the IC50 was 0.03 µg/mL.
